Data as given in patent US7045552B2, “Pharmaceutical composition for improved administration of HIV gp41-derived peptides, and its use in therapy” (Trimeris, Inc., priority 2002, dated 2006).

Legend:
HIV = settings: cited from earlier work
HIV-1 gp41 (HIV-1) [1] = target: HIV-1 gp41 (HIV-1)
HIV-1 gp41 (HIV-1) [2] = target: HIV-1 gp41 (HIV-1); remark: listed apart in the source

In the case of “NNLLRAIEAQQHLLQLTVWGIKQLQARILAVERYLKDQ [DP107]”, the “50% effective concentration (EC50), blocked infection of T cells” value (HIV) is given as 1000 ng/mL.
T20 (SEQ ID NO:4) (peptide) showed an IC50, antiviral potency by the methods of Example 2; PEG 1500 formulation (HIV-1 gp41 (HIV-1) [1]) of 6.6 ng/mL.
In the case of T1249 (SEQ ID NO:5) (peptide), the IC50 (ng/ml), Magi-CCR5 infectivity assay; mannitol formulation (HIV-1 gp41 (HIV-1) [2]) is reported as 3.6 ng/mL.
